According to publication PMC3954644 (Biochemistry, 2014):

B1: human Δ1-pyrroline-5-carboxylate dehydrogenase (HsP5CDH, ALDH4A1), residues 18-563, tag-free (enzyme, UniProt P30038 18-563, looked up)
chain: TGAGLRWKHTSSLKVANEPVLAFTQGSPERDALQKALKDLKGRMEAIPCVVGDEEVWTSDVQYQVSPFNHGHKVAKFCYADKSLLNKAIEAALAARKEWDLKPIADRAQIFLKAADMLSGPRRAEILAKTMVGQGKTVIQAEIDAAAELIDFFRFNAKYAVELEGQQPISVPPSTNSTVYRGLEGFVAAISPFNFTAIGGNLAGAPALMGNVVLWKPSDTAMLASYAVYRILREAGLPPNIIQFVPADGPLFGDTVTSSEHLCGINFTGSVPTFKHLWKQVAQNLDRFHTFPRLAGECGGKNFHFVHRSADVESVVSGTLRSAFEYGGQKCSACSRLYVPHSLWPQIKGRLLEEHSRIKVGDPAEDFGTFFSAVIDAKSFARIKKWLEHARSSPSLTILAGGKCDDSVGYFVEPCIVESKDPQEPIMKEEIFGPVLSVYVYPDDKYKETLQLVDSTTSYGLTGAVFSQDKDVVQEATKVLRNAAGNFYINDKSTGSIVGQQPFGGARASGTNDKPGGPHYILRWTSPQVIKETHKPLGDWSYAYMQ
B2: Put2p mutant W193A, residues 23-575, His tag removed (enzyme, S. cerevisiae, UniProt P07275 23-575, looked up)
chain: KPPKHIRNEPVKPFRNIDLKDWDLLRASLMKFKSSSLEVPLVINGERIYDNNERALFPQTNPANHQQVLANVTQATEKDVMNAVKAAKDAKKDWYNLPFYDRSAIFLKAADLISTKYRYDMLAATMLGQGKNVYQAEIDCITELSDFFRYYVKYASDLYAQQPVESADGTANKAEYRPLEGFVYAVSPFNFTAIAANLIGAPALMGNTVVWKPSQTAALSNYLLMTVLEEAGLPKGVINFIPGDPVQVTDQVLADKDFGALHFTGSTNVFKSLYGKIQSGVVEGKYRDYPRIIGETGGKNFHLVHPSANISHAVLSTIRGTFEFQGQKCSAASRLYLPESKSEEFLSDMFGILQSQNVVPMNTSASPISGGNLRGFMGPVIHEQSFDKLVKVIEDAKKDPELEILYGGQYDKSQGWFVGPTVIKAKRPDHPYMSTEFFGPILTVYEYPDTEFNEICDIIDNTSQYALTGAIFAKDRKAIEYADEKLKFSAGNFYINDKCTGAVVSQQWFGGARMSGTDDKAGGPNILSRFVSIRNTKENFYELTDFKYPSNYE

Legend:
crystal structure = target: the molecule itself; experiment: crystal structure
AUC = target: the molecule itself; experiment: AUC

Row | Protein | stoichiometry N (crystal structure) | stoichiometry N (AUC)
1 | B1 | 2 | –
2 | B2 | – | 2
